How the values were obtained:
c-Abl (mouse) = test: phosphorylation enrichment, bacterial display (enrichment ratio); higher = better substrate or ligand; peptides without Tyr show the background
EPHB2 = EPHB2 (UniProt P29323); test: as above
Fer (mouse) = test: as above
Hck = Hck (UniProt P08631); test: as above
Fyn = Fyn (UniProt P06241); test: as above
Jak2 = Jak2 (UniProt O60674); test: as above
MERTK = MERTK (UniProt Q12866); test: as above
FGFR1 = FGFR1 (UniProt P11362); test: as above
AncSZ = test: as above
EPHB1 = EPHB1 (UniProt P54762); test: as above
EPHB1, sequence (P54762 whole entry, looked up): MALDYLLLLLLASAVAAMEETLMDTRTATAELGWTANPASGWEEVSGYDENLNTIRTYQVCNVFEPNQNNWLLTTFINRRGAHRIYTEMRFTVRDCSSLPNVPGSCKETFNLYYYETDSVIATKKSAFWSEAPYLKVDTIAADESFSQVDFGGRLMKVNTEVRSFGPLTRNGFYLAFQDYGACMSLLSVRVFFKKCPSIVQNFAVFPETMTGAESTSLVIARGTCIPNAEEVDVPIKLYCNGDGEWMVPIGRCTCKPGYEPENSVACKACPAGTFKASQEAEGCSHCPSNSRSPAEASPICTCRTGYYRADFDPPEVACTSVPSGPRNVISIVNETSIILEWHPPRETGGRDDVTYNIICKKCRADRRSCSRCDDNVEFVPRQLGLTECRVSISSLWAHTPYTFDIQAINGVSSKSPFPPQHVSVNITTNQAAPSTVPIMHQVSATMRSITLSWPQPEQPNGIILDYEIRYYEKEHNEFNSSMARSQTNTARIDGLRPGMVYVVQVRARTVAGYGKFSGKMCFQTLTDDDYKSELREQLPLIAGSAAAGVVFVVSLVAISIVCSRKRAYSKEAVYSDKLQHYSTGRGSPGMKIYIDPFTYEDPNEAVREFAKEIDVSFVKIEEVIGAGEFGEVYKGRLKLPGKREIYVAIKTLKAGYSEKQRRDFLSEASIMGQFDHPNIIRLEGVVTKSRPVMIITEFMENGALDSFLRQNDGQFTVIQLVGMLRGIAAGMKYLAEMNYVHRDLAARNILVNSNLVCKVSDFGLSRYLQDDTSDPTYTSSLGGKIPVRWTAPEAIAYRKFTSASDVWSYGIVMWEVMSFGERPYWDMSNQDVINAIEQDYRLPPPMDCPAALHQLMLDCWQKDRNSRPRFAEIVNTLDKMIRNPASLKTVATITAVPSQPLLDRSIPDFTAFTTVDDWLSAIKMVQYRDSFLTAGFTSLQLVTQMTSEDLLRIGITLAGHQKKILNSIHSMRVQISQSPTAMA

Fes = Fes (UniProt P07332); test: as above
c-Src = test: as above
FGFR3 = FGFR3 (UniProt P22607); test: as above
FGFR3, sequence (P22607 whole entry, looked up): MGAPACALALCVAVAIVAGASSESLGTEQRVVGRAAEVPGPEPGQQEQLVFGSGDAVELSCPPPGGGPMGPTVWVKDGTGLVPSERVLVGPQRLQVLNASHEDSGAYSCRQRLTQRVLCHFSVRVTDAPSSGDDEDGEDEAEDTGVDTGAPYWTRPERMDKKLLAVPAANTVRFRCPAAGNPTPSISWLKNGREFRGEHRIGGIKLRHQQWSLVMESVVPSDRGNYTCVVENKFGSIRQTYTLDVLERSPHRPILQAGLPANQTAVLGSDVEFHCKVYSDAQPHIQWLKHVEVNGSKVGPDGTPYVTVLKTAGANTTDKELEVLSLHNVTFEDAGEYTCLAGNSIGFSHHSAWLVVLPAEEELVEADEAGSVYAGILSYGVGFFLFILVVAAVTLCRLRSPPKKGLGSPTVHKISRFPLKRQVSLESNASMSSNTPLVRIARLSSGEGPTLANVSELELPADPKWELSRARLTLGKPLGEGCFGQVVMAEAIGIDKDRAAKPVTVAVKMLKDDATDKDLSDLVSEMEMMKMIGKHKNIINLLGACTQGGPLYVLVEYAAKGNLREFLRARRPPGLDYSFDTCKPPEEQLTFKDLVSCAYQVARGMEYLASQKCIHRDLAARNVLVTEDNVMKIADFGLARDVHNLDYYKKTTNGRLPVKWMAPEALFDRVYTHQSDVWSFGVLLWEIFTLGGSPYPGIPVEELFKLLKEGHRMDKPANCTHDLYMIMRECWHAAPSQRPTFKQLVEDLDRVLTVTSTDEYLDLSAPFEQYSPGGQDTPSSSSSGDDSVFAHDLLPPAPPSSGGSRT

Grb2 SH2 = Grb2 SH2 (UniProt P62993); test: SH2 binding enrichment of the phosphorylated peptide, bacterial display (enrichment ratio); higher = better substrate or ligand; peptides without Tyr show the background
Grb2 SH2, sequence (P62993 whole entry, looked up): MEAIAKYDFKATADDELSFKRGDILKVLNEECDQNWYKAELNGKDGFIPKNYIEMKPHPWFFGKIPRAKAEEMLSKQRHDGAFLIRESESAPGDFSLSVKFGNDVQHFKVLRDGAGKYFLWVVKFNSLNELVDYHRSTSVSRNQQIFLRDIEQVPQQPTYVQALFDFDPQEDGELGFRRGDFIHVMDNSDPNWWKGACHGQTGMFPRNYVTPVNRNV

c-Src SH2 = test: as above
SHP2-C SH2 = test: as above
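Throughout, for SH2 binding enrichment of the phosphorylated peptide, bacterial display: peptide library displayed on the E. coli surface as eCPX fusions, selected cells deep-sequenced, score is each peptide's frequency after selection divided by its frequency in the input.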
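Throughout, for phosphorylation enrichment, bacterial display: 11-residue human phosphosite peptides and single-mutation variants displayed on the E. coli surface, counted by deep sequencing, each peptide's frequency after selection divided by its frequency in the unselected input library; frequency after pTyr selection over input frequency; kinase dosed for 20-30% of maximal phosphorylation in three min.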

EPHB2, sequence (P29323 whole entry, looked up): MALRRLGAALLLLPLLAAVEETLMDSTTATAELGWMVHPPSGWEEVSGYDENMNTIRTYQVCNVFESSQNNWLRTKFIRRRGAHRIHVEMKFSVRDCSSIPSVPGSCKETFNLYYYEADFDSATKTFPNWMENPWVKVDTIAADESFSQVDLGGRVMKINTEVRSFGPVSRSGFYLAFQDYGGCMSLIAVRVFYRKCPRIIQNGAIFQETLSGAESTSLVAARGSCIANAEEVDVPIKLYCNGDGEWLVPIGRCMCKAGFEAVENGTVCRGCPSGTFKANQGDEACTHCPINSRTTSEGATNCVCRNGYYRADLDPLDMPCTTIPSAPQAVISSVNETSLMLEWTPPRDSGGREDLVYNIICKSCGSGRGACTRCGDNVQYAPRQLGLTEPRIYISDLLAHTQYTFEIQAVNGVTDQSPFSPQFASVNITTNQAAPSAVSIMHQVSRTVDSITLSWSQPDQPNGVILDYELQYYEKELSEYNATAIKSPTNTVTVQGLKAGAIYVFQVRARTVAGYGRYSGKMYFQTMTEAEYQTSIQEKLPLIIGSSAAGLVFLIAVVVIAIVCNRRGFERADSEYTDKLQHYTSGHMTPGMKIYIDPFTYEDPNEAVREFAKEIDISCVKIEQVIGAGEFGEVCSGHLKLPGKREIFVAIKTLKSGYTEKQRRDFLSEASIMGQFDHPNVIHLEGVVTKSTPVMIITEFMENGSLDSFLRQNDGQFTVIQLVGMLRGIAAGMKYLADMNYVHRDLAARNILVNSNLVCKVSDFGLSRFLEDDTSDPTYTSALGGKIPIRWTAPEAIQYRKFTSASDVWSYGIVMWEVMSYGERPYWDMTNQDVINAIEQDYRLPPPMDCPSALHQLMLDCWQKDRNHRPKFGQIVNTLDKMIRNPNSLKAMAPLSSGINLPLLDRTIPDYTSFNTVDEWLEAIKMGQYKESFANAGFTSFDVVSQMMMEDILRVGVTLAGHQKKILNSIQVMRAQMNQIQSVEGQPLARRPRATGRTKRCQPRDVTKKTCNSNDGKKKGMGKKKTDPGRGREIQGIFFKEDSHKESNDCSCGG
MERTK, sequence (Q12866 whole entry, looked up): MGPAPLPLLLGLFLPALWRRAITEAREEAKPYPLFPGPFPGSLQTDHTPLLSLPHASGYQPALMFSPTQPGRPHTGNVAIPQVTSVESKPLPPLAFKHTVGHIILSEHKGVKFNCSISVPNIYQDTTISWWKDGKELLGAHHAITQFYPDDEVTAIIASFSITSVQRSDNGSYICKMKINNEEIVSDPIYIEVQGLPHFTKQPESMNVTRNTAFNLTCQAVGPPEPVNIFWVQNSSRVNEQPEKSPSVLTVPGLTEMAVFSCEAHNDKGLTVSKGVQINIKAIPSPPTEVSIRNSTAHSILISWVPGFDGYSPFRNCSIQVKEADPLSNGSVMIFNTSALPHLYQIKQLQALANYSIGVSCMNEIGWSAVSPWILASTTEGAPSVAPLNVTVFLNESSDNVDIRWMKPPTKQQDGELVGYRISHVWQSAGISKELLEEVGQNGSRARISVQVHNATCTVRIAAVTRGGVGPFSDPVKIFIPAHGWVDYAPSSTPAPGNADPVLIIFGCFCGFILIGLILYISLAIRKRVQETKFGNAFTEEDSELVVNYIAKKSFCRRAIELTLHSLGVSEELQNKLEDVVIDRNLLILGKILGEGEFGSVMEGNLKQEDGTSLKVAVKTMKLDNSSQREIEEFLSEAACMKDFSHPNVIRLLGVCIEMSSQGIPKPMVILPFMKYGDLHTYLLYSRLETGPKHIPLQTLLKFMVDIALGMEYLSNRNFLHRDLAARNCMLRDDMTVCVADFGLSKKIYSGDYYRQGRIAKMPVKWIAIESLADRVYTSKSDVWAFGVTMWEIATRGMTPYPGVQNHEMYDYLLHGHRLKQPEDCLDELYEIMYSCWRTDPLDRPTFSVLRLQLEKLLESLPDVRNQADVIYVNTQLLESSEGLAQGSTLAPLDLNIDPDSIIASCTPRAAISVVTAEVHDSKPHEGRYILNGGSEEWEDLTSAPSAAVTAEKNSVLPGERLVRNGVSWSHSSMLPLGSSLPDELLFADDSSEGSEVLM
Fyn, sequence (P06241 whole entry, looked up): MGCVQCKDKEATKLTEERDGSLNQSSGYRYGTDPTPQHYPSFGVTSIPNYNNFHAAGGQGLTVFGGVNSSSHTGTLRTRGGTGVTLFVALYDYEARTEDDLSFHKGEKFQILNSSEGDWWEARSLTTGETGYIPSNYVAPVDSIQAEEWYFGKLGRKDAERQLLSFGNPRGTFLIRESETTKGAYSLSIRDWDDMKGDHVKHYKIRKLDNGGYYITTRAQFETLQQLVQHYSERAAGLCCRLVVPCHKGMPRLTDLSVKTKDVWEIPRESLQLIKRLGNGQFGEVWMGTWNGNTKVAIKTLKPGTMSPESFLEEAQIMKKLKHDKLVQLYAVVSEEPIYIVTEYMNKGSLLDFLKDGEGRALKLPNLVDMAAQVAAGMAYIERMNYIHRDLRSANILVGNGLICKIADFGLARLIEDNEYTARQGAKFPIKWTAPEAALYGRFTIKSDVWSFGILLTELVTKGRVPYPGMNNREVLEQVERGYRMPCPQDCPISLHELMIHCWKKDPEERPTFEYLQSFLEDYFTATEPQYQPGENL

| Sequence | phosphorylation enrichment (c-Abl (mouse)) | phosphorylation enrichment (EPHB2) | phosphorylation enrichment (Fer (mouse)) | phosphorylation enrichment (Hck) | phosphorylation enrichment (Fyn) | phosphorylation enrichment (Jak2) | phosphorylation enrichment (MERTK) | phosphorylation enrichment (FGFR1) | phosphorylation enrichment (AncSZ) | phosphorylation enrichment (EPHB1) | phosphorylation enrichment (Fes) | phosphorylation enrichment (c-Src) | phosphorylation enrichment (FGFR3) | SH2 binding enrichment (Grb2 SH2) | SH2 binding enrichment (c-Src SH2) | SH2 binding enrichment (SHP2-C SH2) |
| --- | --- | --- | --- | --- | --- | --- | --- | --- | --- | --- | --- | --- | --- | --- | --- | --- |
| MSSLYYANTLF [HOXB7_Y6] | 8.46 | 12.8 | 5.33 | 5.94 | 4.32 | 3.08 | 10.8 | 6.15 | 1.32 | 10.7 | 1.01 | 4.4 | 5.82 | 2.87 | 1.24 | 0.739 |
| MSYDRYMAVCH [OR2A5_Y123_I126V] | 0.509 | 0.751 | 0.595 | 0.507 | 0.475 | 0.891 | 0.44 | 0.438 | 0.867 | 0.879 | 0.878 | 0.464 | 0.57 | 0.779 | 0.993 | 0.687 |
| MVSLFYGTALF [OR10C1_Y251] | 1.21 | 0.708 | 1.18 | 1.45 | 2.21 | 1.2 | 0.707 | 0.51 | 1.32 | 0.757 | 1.32 | 2.44 | 0.906 | 0.865 | 0.431 | 0.778 |
| MYRVQYNSSVD [LRFN1_Y458_Q455R] | 0.629 | 0.437 | 0.403 | 0.435 | 0.435 | 0.68 | 0.375 | 0.433 | 0.785 | 0.487 | 0.876 | 0.411 | 0.715 | 0.659 | 0.613 | 0.869 |
| NDFGNYNNQSS [HNRNPA1_Y318] | 0.874 | 0.352 | 0.322 | 0.417 | 0.333 | 0.49 | 0.285 | 0.417 | 0.523 | 0.392 | 0.695 | 0.343 | 0.419 | 0.826 | 0.537 | 0.68 |
| NEANKYQISVN [FGB_Y368] | 0.592 | 0.411 | 0.369 | 0.391 | 0.435 | 0.654 | 0.371 | 0.372 | 0.691 | 0.39 | 0.816 | 0.425 | 0.459 | 0.763 | 0.481 | 0.717 |
| NEKNIYGVPLM [BMPR2_Y247_R248G] | 19.6 | 1.7 | 3.26 | 6.04 | 4.93 | 0.627 | 2.83 | 0.511 | 0.616 | 0.431 | 0.717 | 3.45 | 0.624 | 0.808 | 0.478 | 0.785 |
| NESVDSRATFP [MET_Y1003_Y1003S] | 0.661 | 0.597 | 0.376 | 0.492 | 0.442 | 0.826 | 0.531 | 0.485 | 0.783 | 0.427 | 1.1 | 0.48 | 0.583 | 0.925 | 0.48 | 0.625 |
| NFPGGYSGSVK [MCPH1_Y606_L602F] | 0.529 | 0.379 | 0.368 | 0.406 | 0.44 | 0.539 | 0.365 | 0.486 | 0.354 | 0.357 | 0.547 | 0.451 | 0.47 | 0.802 | 0.59 | 0.667 |
| NFRTTYINANE [KCNH2_Y475_V476I] | 0.711 | 0.435 | 0.383 | 0.462 | 0.412 | 0.843 | 0.476 | 0.528 | 0.733 | 0.566 | 0.819 | 0.584 | 0.506 | 5.07 | 0.745 | 1.34 |
| NGRTGDVLQPE [PLCG2_Y1036_Y1036D] | 0.777 | 0.468 | 0.464 | 0.496 | 0.39 | 0.903 | 0.454 | 0.404 | 0.971 | 0.598 | 1.05 | 0.428 | 0.669 | 0.579 | 0.347 | 0.526 |
| NHYKIYNLCAE [PTEN_Y68] | 0.547 | 0.442 | 0.439 | 0.85 | 1.61 | 0.493 | 0.407 | 0.409 | 0.579 | 0.432 | 0.784 | 2.05 | 0.77 | 0.941 | 1.2 | 0.826 |
| NIQKKYYRAIL [CHD7_Y1217] | 0.563 | 0.375 | 0.533 | 0.355 | 0.443 | 0.494 | 0.345 | 0.472 | 0.502 | 0.346 | 0.543 | 0.371 | 0.595 | 1.09 | 0.898 | 1.09 |
| NLDCFYQQVTK [SEC16A_Y1041_R1039C] | 0.831 | 1.08 | 2.22 | 1.91 | 0.675 | 1.15 | 0.856 | 0.934 | 1.54 | 1.1 | 1.31 | 1.31 | 0.786 | 1.1 | 0.947 | 0.845 |
